{
  "source": "patent US20260209323A1",
  "about": "(WHITEHEAD INSTITUTE FOR BIOMEDICAL RE SEARCH, published 2026)",
  "binders": {"B1": {"name": "VHHGSDMD-5 (VHH)", "VHH": "QVQLVETGGGLVQPGGSLRLSCAASGFVFSINPMNWYRQAPGKERELVAYISMRGSTTNYADSVKGRFIISRDNAKNTLYLQMNSLKPEDTAVYYCNAPSRSVWGQGTQVTVSS", "notes": "Alpaca single-domain antibody; also called VHH AK-G04; VHH-5; not shown: C-terminal HA-His tag (recombinant protein: SPR, nanoDSF, liposome assay, ELISA) or HA tag (LUMIER)"}, "B2": {"name": "VHHGSDMD-6 (VHH)", "VHH": "QVQLVETGGGLVQPGGSLRLSCTASGFIFSANQMNWVRQAPGKGLEWLSGISTRGDTTSYADSVKGRFTISRDNAKNTLYLQMNSLQPDDTAVYFCARVCIRGPEPKLRCDDWGQGTQVTVSS", "notes": "Alpaca single-domain antibody; The crystal model holds VHH-6 residues 1-123; also called VHH AK-G08; VHH-6; not shown: C-terminal HA-His tag (recombinant protein: SPR, nanoDSF, liposome assay, crystal, ELISA)"}, "B3": {"name": "VHHGSDMD-1 (VHH)", "VHH": "QVQLVESGGALVQPGGSLRLSCSASGFTFSKYLMSWYRQAPGKERELVATITTAGGNTNYADSVKGRFTISRDNAKNTVYLQMNSLKPEDTAVYYCKASGGTIRTVNETYWGQGTQVTVSS", "notes": "Alpaca single-domain antibody; One entry is used for all tag variants; also called VHH AK-A04; VHH-1; not shown: C-terminal tag that differs by assay: LPETG-His (recombinant protein: SPR, nanoDSF, liposome assay), HA-His6 (ELISA), HA"}, "B4": {"name": "VHHGSDMD-2 (VHH)", "VHH": "QVQLVESGGGLVQPGGSLRLSCVDSRSWINVYGANWYRQAPGKERELVAALTSGGTTNYADSVKGRFTISRDNAKNTVYLQMRDLKPEDTAVYYCNLERYTGSSVYPWGQGTQVTVSS", "notes": "Alpaca single-domain antibody; The crystal model holds VHH-2 residues 1-118; One entry is used for all tag variants; also called VHH AK-C03; VHH-2; not shown: C-terminal tag that differs by assay: LPETG-His (recombinant protein: SPR, nanoDSF, liposome assay, crystal), HA-His6 (E)"}, "B5": {"name": "VHHGSDMD-3 (VHH)", "VHH": "QVQLVETGGGLVQPGGSLRLSCAASGFTLDIYNMGWFRQAPGKEREGVSCISSRYGTSTYYADSVKGRFTISRDNAKNTVYLQMNNLKPEDTAVYYCATVSWRFTTNQDVCLTPSVSGYWGQGTQVTVSS", "notes": "Alpaca single-domain antibody; One entry is used for all tag variants; also called VHH AK-H12; VHH-3; not shown: C-terminal tag that differs by assay: LPETG-His (recombinant protein: SPR, nanoDSF, liposome assay), HA-His6 (ELISA), HA"}, "B6": {"name": "VHH-4 (VHH)", "VHH": "QVQLVESGGGLVQPGGSLRLSCAASGFTLDRHAIAWFRQAPGLEREGVVCTSSSGAITNTADSVKGRFTISRDDAKNTVYLQMNSLKPEDTAIYYCAVRELWTVQPICEPRPRAYAYWGQGTQVTVSS", "notes": "Alpaca single-domain antibody; also called VHH AK-C10; GSDMD4; not shown: C-terminal HA-His tag (recombinant protein: SPR, nanoDSF, liposome assay, ELISA)"}},
  "key": {"[1]": {"biological_target": "T1, human gasdermin D (GSDMD), full length (human, UniProt P57764 1-484, chemically biotinylated (sites not given) in the SPR experiments)", "T1 construct": "Used in SPR (biotinylated), nanoDSF and the liposome assay; the same entry is used for endogenous GSDMD of THP-1 cells; also called wild type, human GSDMD; GSDMD 1-484", "T1 sequence": "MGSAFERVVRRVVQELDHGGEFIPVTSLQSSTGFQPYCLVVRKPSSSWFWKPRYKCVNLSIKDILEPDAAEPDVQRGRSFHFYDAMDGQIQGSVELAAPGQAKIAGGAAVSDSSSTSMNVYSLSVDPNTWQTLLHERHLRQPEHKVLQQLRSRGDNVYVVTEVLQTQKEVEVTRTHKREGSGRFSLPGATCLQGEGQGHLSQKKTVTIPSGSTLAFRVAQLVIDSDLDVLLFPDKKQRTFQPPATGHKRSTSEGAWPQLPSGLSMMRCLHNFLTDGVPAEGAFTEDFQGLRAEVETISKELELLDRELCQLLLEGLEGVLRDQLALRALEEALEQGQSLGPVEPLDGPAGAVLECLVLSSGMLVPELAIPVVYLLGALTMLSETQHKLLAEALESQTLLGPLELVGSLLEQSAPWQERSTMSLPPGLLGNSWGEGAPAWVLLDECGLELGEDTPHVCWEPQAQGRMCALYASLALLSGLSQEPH", "assay": "nanoDSF thermal shift, equimolar GSDMD and nanobody"}, "[2]": {"biological_target": "T1, human gasdermin D (GSDMD), full length", "assay": "nanoDSF thermal shift, 5 µM GSDMD + 5 µM VHH; SD 0.8 °C; GSDMD alone 50.2 °C (SD 0.3)", "protocol": "(§1) One representative out of three experiments is shown. d, Unfolding temperatures of GSDMD, the nanobodies and GSDMD-nanobody complexes were determined using nanoDSF. The unfolding temperatures of GSDMD at 5 μM and the GSDMD nanobody complexes after addition of 5 μM nanobody are shown. N=x, data represented with SD. e, Unfolding temperatures of GSDMD and GSDMD-nanobody complexes.\n(§2) The thermal stability of the nanobodies and their impact on the thermostability of GSDMD was further analyzed using a thermal shift assay by nano-differential scanning fluorimetry (FIG. 11D, E and FIG. 18)."}, "[3]": {"biological_target": "T1, human gasdermin D (GSDMD), full length", "assay": "SPR (Biacore 8K), biotinylated GSDMD immobilized, nanobody as analyte, multi-cycle kinetics, 1:1 model", "protocol": "(§3) Chemically biotinylated GSDMD was immobilized on a sensor chip and nanobodies were injected as analytes at the indicated concentrations for 120 s, followed by dissociation for 300 s. Dissociation constants (KDs) were determined from the association and dissociation fits by applying a 1:1 binding model. d, Epitope binning assay.\n(§4) Surface plasmon resonance experiments were performed using a Biacore 8K instrument (GE Healthcare). The flow system was cleaned using the maintenance “Desorb” function (Desorb Kit, GE Healthcare). The system was flushed with running buffer (20 mM HEPES (pH 8.0), 200 mM NaCl, 5 mM DTT, 0.05% Tween20) and all steps were performed at 25° C. chip temperature. Chemically biotinylated GSDMD at a concentration of 100 nM was immobilized for 180 s on the flow cell 2 of a Series S Sensor Chip CAP using a biotin capture kit and a flow rate of 30 μl/min. The system was washed for 600 s with running buffer with a flow rate of 30 μl/min. Binding affinities were determined using multi-cycle kinetics. […] The association step was carried out for 120 s and the dissociation step for 300 s."}, "GSDMD^CT": {"biological_target": "T2, GSDMD^CT (human, UniProt P57764)", "T2 construct": "domain fused to Renilla luciferase; LUMIER bait; also called GSDMD^CT-Renilla luciferase fusion", "T2 sequence (single chain, looked up)": "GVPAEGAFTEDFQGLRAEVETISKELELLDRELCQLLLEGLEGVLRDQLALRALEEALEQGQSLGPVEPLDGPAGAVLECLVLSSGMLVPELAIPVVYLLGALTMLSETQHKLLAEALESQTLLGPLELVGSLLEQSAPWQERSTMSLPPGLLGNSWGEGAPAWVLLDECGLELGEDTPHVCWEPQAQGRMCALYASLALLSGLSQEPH", "assay": "LUMIER co-IP in HEK293T, HA-tagged VHH with Renilla luciferase fusion"}, "[4]": {"biological_target": "T1, human gasdermin D (GSDMD), full length", "assay": "nanoDSF titration, 5 µM GSDMD + 5 µM VHH; SD 0.8; GSDMD 5 µM alone 50.2 °C, VHH-5 50 µM alone 58.5 °C", "protocol": "(§5) The melting temperatures of GSDMD and the nanobodies alone were determined at concentrations of 5 and 50 μM, respectively."}, "[5]": {"biological_target": "T1, human gasdermin D (GSDMD), full length", "assay": "SPR (Biacore 8K), chemically biotinylated GSDMD immobilised, VHH as analyte, multi-cycle kinetics, 1:1 fit", "protocol": "as §3, §4"}, "[6]": {"biological_target": "T1, human gasdermin D (GSDMD), full length", "assay": "nanoDSF titration, 5 µM GSDMD + 5 µM VHH; SD 0.5; GSDMD 5 µM alone 50.2 °C, VHH-6 50 µM alone 42.6 and 53.5 °C", "protocol": "as §5"}, "[7]": {"biological_target": "T1, human gasdermin D (GSDMD), full length", "assay": "nanoDSF thermal shift, 5 µM GSDMD + 5 µM VHH; SD 0.5 °C; GSDMD alone 50.2 °C (SD 0.3)", "protocol": "as §1, §2"}, "murine GsdmD": {"biological_target": "T3, murine GsdmD (murine, UniProt Q9D8T2 1-487)", "T3 construct": "not shown: Renilla luciferase", "T3 sequence (looked up)": "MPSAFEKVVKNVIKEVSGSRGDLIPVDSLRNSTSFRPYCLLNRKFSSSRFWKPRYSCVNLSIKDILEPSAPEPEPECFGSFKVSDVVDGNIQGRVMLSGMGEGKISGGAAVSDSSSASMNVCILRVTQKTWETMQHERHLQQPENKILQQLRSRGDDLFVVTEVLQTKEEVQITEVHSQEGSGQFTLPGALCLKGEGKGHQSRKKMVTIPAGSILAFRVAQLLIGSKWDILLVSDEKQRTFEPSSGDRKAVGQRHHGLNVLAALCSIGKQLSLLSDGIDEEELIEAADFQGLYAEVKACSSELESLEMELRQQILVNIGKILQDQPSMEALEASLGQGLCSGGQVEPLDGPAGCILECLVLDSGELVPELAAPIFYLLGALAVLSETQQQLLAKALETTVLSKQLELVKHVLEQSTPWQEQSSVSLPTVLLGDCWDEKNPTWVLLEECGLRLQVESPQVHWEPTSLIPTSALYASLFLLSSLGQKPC", "assay": "LUMIER co-IP in HEK293T, HA-tagged VHH with Renilla luciferase fusion"}, "[8]": {"biological_target": "T1, human gasdermin D (GSDMD), full length", "assay": "nanoDSF titration, 5 µM GSDMD + 5 µM VHH; SD 1.0; GSDMD 5 µM alone 50.2 °C, VHH-1 50 µM alone 67.6 °C", "protocol": "as §5"}, "[9]": {"biological_target": "T1, human gasdermin D (GSDMD), full length", "assay": "nanoDSF thermal shift, 5 µM GSDMD + 5 µM VHH; SD 1.0 °C; GSDMD alone 50.2 °C (SD 0.3)", "protocol": "as §1, §2"}, "[10]": {"biological_target": "T1, human gasdermin D (GSDMD), full length", "assay": "nanoDSF titration, 5 µM GSDMD + 5 µM VHH; SD 1.0; GSDMD 5 µM alone 50.2 °C, VHH-2 50 µM alone 58.0 °C", "protocol": "as §5"}, "[11]": {"biological_target": "T1, human gasdermin D (GSDMD), full length", "assay": "nanoDSF titration, 5 µM GSDMD + 5 µM VHH; SD 1.3; GSDMD 5 µM alone 50.2 °C, VHH-3 50 µM alone 59.1 °C", "protocol": "as §5"}, "[12]": {"biological_target": "T1, human gasdermin D (GSDMD), full length", "assay": "nanoDSF thermal shift, 5 µM GSDMD + 5 µM VHH; SD 1.3 °C; GSDMD alone 50.2 °C (SD 0.3)", "protocol": "as §1, §2"}},
  "data": [
    {"binder": "B1", "values": [
      {"measurement": "decrease of the melting temperature of GSDMD", "setting": "[1]", "result": "≤ 2.5", "unit": "°C"},
      {"measurement": "Tm of GSDMD with the VHH", "setting": "[2]", "result": 48.8, "unit": "°C"},
      {"measurement": "Kd", "setting": "[3]", "result": 4.14, "unit": "nM"},
      {"measurement": "binding result", "setting": "GSDMD^CT", "result": "no binding"},
      {"measurement": "Tm of GSDMD with the VHH", "setting": "[4]", "result": 48.8, "unit": "°C"}
    ]},
    {"binder": "B2", "values": [
      {"measurement": "Kd", "setting": "[5]", "result": 280, "unit": "nM"},
      {"measurement": "increase of the thermal stability of GSDMD", "setting": "[1]", "result": 4.2, "unit": "°C"},
      {"measurement": "Tm of GSDMD with the VHH", "setting": "[6]", "result": 54.4, "unit": "°C"},
      {"measurement": "Tm of GSDMD with the VHH", "setting": "[7]", "result": 54.4, "unit": "°C"}
    ]},
    {"binder": "B3", "values": [
      {"measurement": "binding result", "setting": "murine GsdmD", "result": "no binding"},
      {"measurement": "Tm of GSDMD with the VHH", "setting": "[8]", "result": 59.6, "unit": "°C"},
      {"measurement": "increase of the thermal stability of GSDMD", "setting": "[1]", "result": "≤ 9.4", "unit": "°C"},
      {"measurement": "Kd", "setting": "[3]", "result": 0.55, "unit": "nM"},
      {"measurement": "binding result", "setting": "GSDMD^CT", "result": "no binding"},
      {"measurement": "Tm of GSDMD with the VHH", "setting": "[9]", "result": 59.6, "unit": "°C"}
    ]},
    {"binder": "B4", "values": [
      {"measurement": "binding result", "setting": "murine GsdmD", "result": "no binding"},
      {"measurement": "increase of the thermal stability of GSDMD", "setting": "[1]", "result": "≤ 9.4", "unit": "°C"},
      {"measurement": "Tm of GSDMD with the VHH", "setting": "[10]", "result": 56, "unit": "°C"},
      {"measurement": "Kd", "setting": "[3]", "result": 8.24, "unit": "nM"},
      {"measurement": "binding result", "setting": "GSDMD^CT", "result": "no binding"},
      {"measurement": "Tm of GSDMD with the VHH", "setting": "[9]", "result": 56, "unit": "°C"}
    ]},
    {"binder": "B5", "values": [
      {"measurement": "Tm of GSDMD with the VHH", "setting": "[11]", "result": 54.1, "unit": "°C"},
      {"measurement": "increase of the thermal stability of GSDMD", "setting": "[1]", "result": "≤ 9.4", "unit": "°C"},
      {"measurement": "Kd", "setting": "[3]", "result": 2.19, "unit": "nM"},
      {"measurement": "binding result", "setting": "GSDMD^CT", "result": "no binding"},
      {"measurement": "Tm of GSDMD with the VHH", "setting": "[12]", "result": 54.1, "unit": "°C"}
    ]},
    {"binder": "B6", "values": [
      {"measurement": "binding result", "setting": "GSDMD^CT", "result": "no binding"}
    ]}
  ]
}
